Results taken from PMC7083938, “NELL2-Robo3 complex structure reveals mechanisms of receptor activation for axon guidance” (Nature Communications, 2020).
Where “and” joins values, the source holds several entries; their conditions need not be identical. Identical values can stand only once.

T1: mouse Robo1 FN1–3 (mouse, UniProt O89026 524-835, biotin on the N-terminal amine (NHS-Biotin at pH 6.5))
T1 construct: Robo1, mouse, FN domains 1-3; also called mRobo1 FN1–3; source: High Five cells (baculovirus), secreted, purified (Ni-NTA, SEC)
T1 sequence (looked up): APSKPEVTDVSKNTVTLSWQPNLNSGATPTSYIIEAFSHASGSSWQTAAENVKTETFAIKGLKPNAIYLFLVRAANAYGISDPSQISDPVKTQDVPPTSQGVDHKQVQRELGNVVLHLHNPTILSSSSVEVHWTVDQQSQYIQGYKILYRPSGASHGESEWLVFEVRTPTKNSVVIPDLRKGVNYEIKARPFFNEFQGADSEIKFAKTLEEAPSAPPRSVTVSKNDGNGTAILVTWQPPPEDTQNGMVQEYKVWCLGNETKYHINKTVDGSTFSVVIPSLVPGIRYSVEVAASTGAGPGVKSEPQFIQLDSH

T2: biotinylated human Robo3 FN1–3 (Avi-tagged) (human, UniProt Q96MS0 558-869, biotin on the Avi-tag (BirA))
T2 construct: Robo3, human, FN domains 1-3; also called biotinylated hRobo3 FN1–3; hRobo3 FN1–3; source: High Five cells (baculovirus), secreted, purified (Ni-NTA, SEC), biotinylated with BirA
T2 sequence (looked up): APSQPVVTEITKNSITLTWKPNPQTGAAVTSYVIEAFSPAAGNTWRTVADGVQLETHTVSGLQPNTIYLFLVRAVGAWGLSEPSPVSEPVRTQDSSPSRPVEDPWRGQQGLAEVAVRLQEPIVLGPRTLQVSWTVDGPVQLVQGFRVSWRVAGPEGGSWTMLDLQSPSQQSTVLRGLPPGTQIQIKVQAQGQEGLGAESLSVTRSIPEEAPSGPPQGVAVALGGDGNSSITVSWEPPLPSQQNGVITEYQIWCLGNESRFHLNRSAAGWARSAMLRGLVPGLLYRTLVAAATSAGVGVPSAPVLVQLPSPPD

B1: mNELL1 (full length) (ligand, mouse, UniProt Q2VWQ2 25-809, looked up)
chain: DPDLQMDIITELDLVNTTLGVTQVAGLHNASKAFLFQDVQREIHSAPHVSEKLIQLFRNKSEFTFLATVQQKPSTSGVILSIRELEHSYFELESSGPREEIRYHYIHGGKPRTEALPYRMADGQWHKVALSVSASHLLLHVDCNRIYERVIDPPETNLPPGSNLWLGQRNQKHGFFKGIIQDGKIIFMPNGFITQCPNLNRTCPTCSDFLSLVQGIMDLQELLAKMTAKLNYAETRLGQLENCHCEKTCQVSGLLYRDQDSWVDGDNCRNCTCKSGAVECRRMSCPPLNCSPDSLPVHISGQCCKVCRPKCIYGGKVLAEGQRILTKTCRECRGGVLVKITEACPPLNCSEKDHILPENQCCRVCRGHNFCAEAPKCGENSECKNWNTKATCECKNGYISVQGNSAYCEDIDECAAKMHYCHANTVCVNLPGLYRCDCIPGYIRVDDFSCTEHDDCGSGQHNCDKNAICTNTVQGHSCTCQPGYVGNGTVCKAFCEEGCRYGGTCVAPNKCVCPSGFTGSHCEKDIDECAEGFVECHNHSRCVNLPGWYHCECRSGFHDDGTYSLSGESCIDIDECALRTHTCWNDSACINLAGGFDCLCPSGPSCSGDCPHEGGLKHNGQVWILREDRCSVCSCKDGKIFCRRTACDCQNPNVDLFCCPECDTRVTSQCLDQSGQKLYRSGDNWTHSCQQCRCLEGEADCWPLACPSLSCEYTAIFEGECCPRCVSDPCLADNIAYDIRKTCLDSSGISRLSGAVWTMAGSPCTTCQCKNGRVCCSVDLVCLEN
notes: mouse NELL1, D25-N809; trimer by MALS; also called NELL1FL (Polyhedrin, mouse); source: High Five cells (baculovirus), purified (Ni-NTA, SEC)
B2: full-length mouse NELL2 (ligand, UniProt Q61220 25-819, looked up)
chain: LGVDPSLQIDVLTELELGESTDGVRQVPGLHNGTKAFLFQESPRSIKASTATAERFFQKLRNKHEFTILVTLKQIHLNSGVILSIHHLDHRYLELESSGHRNEIRLHYRSGTHRPHTEVFPYILADAKWHKLSLAFSASHLILHIDCNKIYERVVEMPSTDLPLGTTFWLGQRNNAHGYFKGIMQDVHVLVMPQGFIAQCPDLNRTCPTCNDFHGLVQKIMELQDILSKTSAKLSRAEQRMNRLDQCYCERTCTVKGTTYRESESWTDGCKNCTCLNGTIQCETLVCPAPDCPPKSAPAYVDGKCCKECKSTCQFQGRSYFEGERNTVYSSSGMCVLYECKDQTMKLVENIGCPPLDCPESHQIALSHSCCKVCKGYDFCSEKHTCMENSVCRNLNDRAVCSCRDGFRALREDNAYCEDIDECAEGRHYCRENTMCVNTPGSFMCICKTGYIRIDDYSCTEHDECLTNQHNCDENALCFNTVGGHNCVCKPGYTGNGTTCKAFCKDGCRNGGACIAANVCACPQGFTGPSCETDIDECSEGFVQCDSRANCINLPGWYHCECRDGYHDNGMFAPGGESCEDIDECGTGRHSCTNDTICFNLDGGYDCRCPHGKNCTGDCVHEGKVKHTGQIWVLENDRCSVCSCQTGFVMCRRMVCDCENPTVDLSCCPECDPRLSSQCLHQNGETVYNSGDTWVQDCRQCRCLQGEVDCWPLACPEVECEFSVLPENECCPRCVTDPCQADTIRNDITKTCLDEMNVVRFTGSSWIKHGTECTLCQCKNGHLCCSVDPQCLQEL
modifications: biotin (NHS-Biotin) where captured on the SA chip for SPR
notes: NELL2, mouse; called full-length; the methods say that mature domains were cloned into pAcGP67A; Trimer by MALS; also called mNELL2; mNELL2 ectodomain; source: High Five cells (baculovirus), secreted, purified (Ni-NTA, SEC); not shown: His6, C-terminal, kept
B3: mouse NELL2 EGF1–6, wild type (domain or fragment)
chain: not shown
notes: NELL2, mouse, EGF domains 1-6; also called mNELL2 EGF1–6 WT; mNELL2 EGF1–6; source: High Five cells (baculovirus), secreted, purified (Ni-NTA, SEC)
B4: mouse Robo1 ectodomain (domain or fragment, UniProt O89026 20-858, looked up)
chain: SRLRQEDFPPRIVEHPSDLIVSKGEPATLNCKAEGRPTPTIEWYKGGERVETDKDDPRSHRMLLPSGSLFFLRIVHGRKSRPDEGVYICVARNYLGEAVSHNASLEVAILRDDFRQNPSDVMVAVGEPAVMECQPPRGHPEPTISWKKDGSPLDDKDERITIRGGKLMITYTRKSDAGKYVCVGTNMVGERESEVAELTVLERPSFVKRPSNLAVTVDDSAEFKCEARGDPVPTVRWRKDDGELPKSRYEIRDDHTLKIRKVTAGDMGSYTCVAENMVGKAEASATLTVQEPPHFVVKPRDQVVALGRTVTFQCEATGNPQPAIFWRREGSQNLLFSYQPPQSSSRFSVSQTGDLTITNVQRSDVGYYICQTLNVAGSIITKAYLEVTDVIADRPPPVIRQGPVNQTVAVDGTLILSCVATGSPAPTILWRKDGVLVSTQDSRIKQLESGVLQIRYAKLGDTGRYTCTASTPSGEATWSAYIEVQEFGVPVQPPRPTDPNLIPSAPSKPEVTDVSKNTVTLSWQPNLNSGATPTSYIIEAFSHASGSSWQTAAENVKTETFAIKGLKPNAIYLFLVRAANAYGISDPSQISDPVKTQDVPPTSQGVDHKQVQRELGNVVLHLHNPTILSSSSVEVHWTVDQQSQYIQGYKILYRPSGASHGESEWLVFEVRTPTKNSVVIPDLRKGVNYEIKARPFFNEFQGADSEIKFAKTLEEAPSAPPRSVTVSKNDGNGTAILVTWQPPPEDTQNGMVQEYKVWCLGNETKYHINKTVDGSTFSVVIPSLVPGIRYSVEVAASTGAGPGVKSEPQFIQLDSHGNPVSPEDQVSLAQQISDVVRQP
notes: Robo1, mouse, ectodomain; Mostly dimeric, in equilibrium with monomer and higher oligomers; also called mRobo1 ectodomain; mRobo1; source: High Five cells (baculovirus), secreted, purified (Ni-NTA, SEC)
B5: human NELL2 EGF domains 1-6 (domain or fragment)
chain: not shown
notes: NELL2, human, EGF domains 1-6; also called hNELL2 EGF1–6; NELL2 EGF1–6; source: High Five cells (baculovirus), secreted, purified (Ni-NTA, SEC)
B6: mouse Robo3 FN1 domain (domain or fragment, UniProt Q9Z2I4 558-652, looked up)
chain: PPSQPIVTEVTANSITLTWKPNPQSGATATSYVIEAFSQAAGNTWRTVADGVQLETYTISGLQPNTIYLFLVRAVGAWGLSEPSPVSEPVQTQDS
notes: Robo3, mouse, FN1 domain; also called mRobo3 FN1; source: High Five cells (baculovirus), secreted, purified (Ni-NTA, SEC); not shown: His6, C-terminal, kept

Tests used:
[1] = target: the molecule itself; experiment: SEC-MALS; Superose 6 Increase 10/300 in HBS (10 mM HEPES pH 7.2, 150 mM NaCl), Wyatt HELEOS II
[2] = target: the molecule itself; experiment: SEC-MALS; Wyatt HELEOS II coupled to an AKTA FPLC, Superose Increase 6 10/300, HBS; Zimm model
mouse Robo1 ectodomain = target: B4; experiment: SPR; mRobo1 ectodomain on a CM5 chip by random amine coupling (~1,200 R.U.); mNELL2 as analyte; KD from equilibrium responses assuming 50 to 100% active surface; buffer as for the other SPR experiments, 25 °C; conditions: both partners purified
mouse Robo1 FN1–3 = target: T1, mouse Robo1 FN1–3; experiment: SPR; mRobo1 FN1–3 biotinylated at the N-terminal amine (NHS-Biotin, pH 6.5), 315 RU captured on a Biacore SA chip; mNELL2 EGF1–6 as analyte; Langmuir isotherm; conditions: both partners purified
[3] = target: the molecule itself; experiment: AUC; sedimentation velocity, 20 °C, c(s) analysis in SEDFIT; single concentration 2.5 µM mRobo1 and 1.8 µM mRobo3 at 200,000 g, and concentration series (mRobo3 up to 20 µM)
[4] = target: T2, biotinylated human Robo3 FN1–3 …; experiment: SPR; biotinylated hRobo3 FN1–3 captured on an NLC (neutravidin) chip, ProteOn XPR36; NELL EGF constructs as analyte; 25 °C, 10 mM HEPES pH 7.2, 150 mM NaCl, 0.05% Tween-20, 0.1% BSA; equilibrium responses, 1:1 Langmuir model; conditions: both partners purified
full-length mouse NELL2 = target: B2; experiment: SEC; complex of full-length mNELL2 and mRobo3 FN1 purified by SEC; peak fractions quantified in triplicate by western blot against the His6 tag with 1:1 molar standards; conditions: both partners purified

## B1
[1]
  stoichiometry N: 3

## B2
[2]
  stoichiometry N: 3
Mouse Robo1 ectodomain
  Kd: ~350 µM and 190 to 400 µM

## B3
Mouse Robo1 FN1–3
  Kd: 14 µM

## B4
[3]
  stoichiometry N: 2

## B5
[4]
  Kd: 0.6 µM

## B6
full-length mouse NELL2
  stoichiometry N: 3 mRobo3 FN1 per mNELL2 trimer
